# Experimental data reported in patent US20020177126A1.
# Substitutions are numbered along the chain they refer to.
# B1: A17d4 (Fab) (Fab, V domains shown)
# VH: QVTLRESGPALVKPTQTLTLTCTFSGFSLSTAGMSVGWIRQPPGKALEWLADIWWDGKKSYNPSLKDRLTISKDTSKNQVVLKVTNMDPADTATYYCARDMIFNFYFDVWGQGTTVTVSS
# VL: DIQMTQSPSTLSASVGDRVTITCLPSSRVGYMHWYQQKPGKAPKLLIYDTMYQASGVPSRFSGSGSGTEFTLTISSLQPDDFATYYCFQFSGYPFTFGGGTKLEIK
# B2: A8c7 (Fab) (Fab, V domains shown)
# VH: B1 VH with G57D, F105W
# VL: B1 VL with L24S, P25A, M51R, A54S, F90G
# B3: A4B4 (Fab) (Fab, V domains shown)
# VH: B1 VH with G57D, S60H
# VL: B1 VL with L24S, P25A, M51F, Y52F, Q53L, A54D, F90G
# B4: A1h5 (Fab) (Fab, V domains shown)
# VH: B1 VH with A32P, S60H, F105W
# VL: B1 VL with L24S, P25L, R28S, M51F, Y52F, Q53H, A54R, F90G
# Substrate: F protein of wild type RSV A/Long (respiratory syncytial virus, strain A/Long) (UniProt P12568)
# Test: cell-based or functional assay
# Chain of F protein of wild type RSV A/Long (respiratory syncytial virus, strain A/Long) (P12568 26-574): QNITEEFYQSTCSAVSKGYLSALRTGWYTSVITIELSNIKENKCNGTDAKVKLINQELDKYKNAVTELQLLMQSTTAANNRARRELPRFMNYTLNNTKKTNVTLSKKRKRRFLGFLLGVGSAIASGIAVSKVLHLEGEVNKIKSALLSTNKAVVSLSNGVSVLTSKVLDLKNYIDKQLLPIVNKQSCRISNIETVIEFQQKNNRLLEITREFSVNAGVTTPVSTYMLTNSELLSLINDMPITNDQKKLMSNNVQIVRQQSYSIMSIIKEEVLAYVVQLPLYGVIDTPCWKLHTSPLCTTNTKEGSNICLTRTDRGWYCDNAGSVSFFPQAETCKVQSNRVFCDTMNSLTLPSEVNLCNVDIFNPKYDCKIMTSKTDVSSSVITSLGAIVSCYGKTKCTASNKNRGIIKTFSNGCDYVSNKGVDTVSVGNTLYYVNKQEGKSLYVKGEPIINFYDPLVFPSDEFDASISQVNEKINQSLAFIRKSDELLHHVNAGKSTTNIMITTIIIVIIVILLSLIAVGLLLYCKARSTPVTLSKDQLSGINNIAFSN
Binder,Fold Difference (Control IC50),Fold Difference (Curve IC50),"Mean IC50 (Control), RSV microneutralization","Mean IC50 (Curve), RSV microneutralization"
B1,31 fold,25 fold,0.0171 µg/mL,0.0179 µg/mL
B2,34 fold,3 fold,0.157 µg/mL,0.177 µg/mL
B3,13 fold,11 fold,0.0411 µg/mL,0.0414 µg/mL
B4,3 fold,2 fold,0.176 µg/mL,0.194 µg/mL
